These are literature values, as cited in paper PMC7432558.

This data set deals with TEAD1 (Homo sapiens) (UniProt P28347).
Chain of UniProt P28347 (P28347 whole entry): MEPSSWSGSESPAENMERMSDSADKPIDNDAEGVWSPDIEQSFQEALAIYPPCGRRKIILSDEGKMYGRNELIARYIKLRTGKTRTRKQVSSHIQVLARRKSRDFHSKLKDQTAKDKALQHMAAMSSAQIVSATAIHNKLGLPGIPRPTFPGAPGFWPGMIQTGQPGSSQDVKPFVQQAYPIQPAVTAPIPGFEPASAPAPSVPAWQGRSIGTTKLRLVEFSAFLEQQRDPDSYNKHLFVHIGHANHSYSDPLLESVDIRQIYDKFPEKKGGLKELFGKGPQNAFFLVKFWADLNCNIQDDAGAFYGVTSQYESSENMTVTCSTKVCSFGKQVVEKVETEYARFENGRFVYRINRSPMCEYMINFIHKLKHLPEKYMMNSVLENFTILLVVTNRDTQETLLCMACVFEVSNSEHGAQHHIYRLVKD

Regarding “YAP-derived cyclic peptide 81-100 (from UniProt P46937)”, the Kd – broadly, a measure of binding affinity in units of concentration – was 15 nM.
